Reference: US7057012 (dated 2006)

Target: human PTH-2 receptor (human, UniProt P49190 25-550)
Assay: competition binding vs 125I-rPTH(1-34), COS-7 cells

Chain of human PTH-2 receptor (P49190 25-550): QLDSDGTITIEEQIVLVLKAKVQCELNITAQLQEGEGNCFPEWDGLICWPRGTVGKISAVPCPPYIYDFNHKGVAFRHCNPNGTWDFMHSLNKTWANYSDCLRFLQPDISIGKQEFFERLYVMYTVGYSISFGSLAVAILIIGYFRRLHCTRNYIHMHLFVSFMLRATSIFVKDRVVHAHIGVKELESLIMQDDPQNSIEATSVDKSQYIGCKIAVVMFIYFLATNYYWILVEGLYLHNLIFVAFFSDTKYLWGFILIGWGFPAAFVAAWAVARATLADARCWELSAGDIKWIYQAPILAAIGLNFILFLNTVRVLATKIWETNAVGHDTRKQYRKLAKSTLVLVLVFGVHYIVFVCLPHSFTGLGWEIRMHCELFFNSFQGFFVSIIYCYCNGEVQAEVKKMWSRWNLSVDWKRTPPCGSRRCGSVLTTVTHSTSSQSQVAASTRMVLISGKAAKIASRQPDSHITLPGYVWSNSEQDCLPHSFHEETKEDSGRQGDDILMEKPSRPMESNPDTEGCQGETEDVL

IC50	Binder
67500 nM	SMERVEWARKKLQDV [PTH(17-31) 24 Leu→Ala]
1100 nM	SMERVEWLRKALQDV [PTH(17-31) 27 Lys→Ala]
1700 nM	SMERAEWLRKKLQDV [PTH(17-31) 21 Val→Ala]
700 nM	SMARVEWLRKKLQDV [PTH(17-31) 19 Glu→Ala]
600 nM	SMERVAWLRKKLQDV [PTH(17-31) 22 Glu→Ala]
9900 nM	SMERVEWLRKKAQDV [PTH(17-31) 28 Leu→Ala]
8300 nM	SMERVEWLRAKLQDV [PTH(17-31) 26 Lys→Ala]
90500 nM	SMEAVEWLRKKLQDV [PTH(17-31) 20 Arg→Ala]
> 100000 nM	SMERVEALRKKLQDV [PTH(17-31) 23 Trp→Ala]
1000 nM	SMERVEWLRKKLQDV [PTH(17-31)]
3800 nM	SMERVEWLAKKLQDV [PTH(17-31) 25 Arg→Ala]
1500 nM	SAERVEWLRKKLQDV [PTH(17-31) 18 Met→Ala]
1100 nM	SMERVEWLRKKLQAV [PTH(17-31) 30 Asp→Ala]
900 nM	SMERVEWLRKKLADV [PTH(17-31) 29 Gln→Ala]
3800 nM	SMERVEWLRKKLQDA [PTH(17-31) 31 Val→Ala]
1500 nM	AMERVEWLRKKLQDV [PTH(17-31) 17 Ser→Ala]
